Reference: US20030215899A1, “Reversible oxidation of protein tyrosine phosphatases” (CEPTYR, Inc., priority 2002, published 2003)

Molecular target: PDGFR (ligand-activated, tyrosine phosphorylated) (rat (endogenous protein of Rat-1 fibroblasts)) (UniProt Q05030)
Experiment: preliminary studies in ligand-stimulated Rat-1 cells; method not stated

Sequence of PDGFR (ligand-activated, tyrosine phosphorylated) (rat (endogenous protein of Rat-1 fibroblasts)) (Q05030 32-1097 limits assumed): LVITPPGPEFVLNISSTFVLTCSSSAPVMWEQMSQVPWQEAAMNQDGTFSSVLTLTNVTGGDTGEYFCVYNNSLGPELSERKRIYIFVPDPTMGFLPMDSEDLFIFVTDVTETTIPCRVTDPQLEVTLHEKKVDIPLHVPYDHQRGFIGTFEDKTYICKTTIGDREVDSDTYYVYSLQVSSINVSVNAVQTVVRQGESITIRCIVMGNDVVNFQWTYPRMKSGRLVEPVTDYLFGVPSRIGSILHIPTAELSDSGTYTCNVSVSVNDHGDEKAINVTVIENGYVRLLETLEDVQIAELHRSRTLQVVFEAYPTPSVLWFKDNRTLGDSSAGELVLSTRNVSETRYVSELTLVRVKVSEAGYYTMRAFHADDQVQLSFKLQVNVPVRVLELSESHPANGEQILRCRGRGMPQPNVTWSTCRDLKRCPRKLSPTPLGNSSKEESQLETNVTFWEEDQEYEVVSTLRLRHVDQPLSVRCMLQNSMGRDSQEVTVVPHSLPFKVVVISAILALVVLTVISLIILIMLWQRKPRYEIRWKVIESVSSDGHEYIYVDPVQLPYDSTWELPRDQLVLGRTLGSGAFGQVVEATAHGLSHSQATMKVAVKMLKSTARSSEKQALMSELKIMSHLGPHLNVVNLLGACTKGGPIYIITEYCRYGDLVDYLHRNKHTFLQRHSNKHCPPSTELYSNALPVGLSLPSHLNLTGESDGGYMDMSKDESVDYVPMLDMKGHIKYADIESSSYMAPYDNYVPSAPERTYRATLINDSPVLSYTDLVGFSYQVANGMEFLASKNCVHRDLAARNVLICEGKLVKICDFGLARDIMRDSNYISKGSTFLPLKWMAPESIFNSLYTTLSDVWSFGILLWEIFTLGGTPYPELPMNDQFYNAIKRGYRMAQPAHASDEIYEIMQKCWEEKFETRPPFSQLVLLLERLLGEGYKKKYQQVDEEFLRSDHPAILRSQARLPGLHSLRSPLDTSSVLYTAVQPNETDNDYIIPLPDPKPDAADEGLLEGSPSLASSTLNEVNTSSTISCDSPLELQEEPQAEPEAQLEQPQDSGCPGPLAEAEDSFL

“SHP-2 (from UniProt P41499 2-593) (enzyme)” was tested, and the percent of the total population of SHP-2 recruited into a complex was 10%.
